Measured values published in paper PMC4189725.

Target: CD40-FasL
Test: SEC; gel filtration (Superdex 200) of CD40-FasL conditioned medium; fractions analysed by Western blot (anti FasL) and CD40 ELISA

stoichiometry N: 6
Substance: CD40-FasL
